Assay results reported in patent publication US20210403542A1 (BIOARCTIC, published 2021).

Key:
β-synuclein monomer = β-synuclein monomer (UniProt Q16143 1-134); assay: inhibition ELISA; concentration of β-synuclein monomer varied against BAN0805 (hu47-IgG4)
α-synuclein monomer = α-synuclein monomer (human, UniProt P37840 1-140); assay: SPR, Biacore 8K; antibody captured by anti-human antibody, monomer injected, single cycle kinetics
From the text: (§1) Due to feasibility issues caused by the complexity of the target antigen in combination with pronounced avidity dependence of the antibodies, different assay set-ups were used to assess α-synuclein protofibril and monomer binding, respectively.

[1] = target: T1, human α-synuclein protofibril (human, UniProt P37840 1-140); assay: inhibition ELISA
Aβ-protofibril = target: T2, Aβ-protofibril (UniProt P05067 672-713); assay: inhibition ELISA; concentration of Aβ-protofibril varied against BAN0805 (hu47-IgG4)
T2 construct: also called Aβ-protofibrils

γ-synuclein monomer = γ-synuclein monomer (UniProt O76070 1-127); assay: inhibition ELISA; concentration of γ-synuclein monomer varied against BAN0805 (hu47-IgG4)
[2] = target: T1, human α-synuclein protofibril; assay: SPR, Biacore 8K; ratio of KD values
From the text: as §1

[3] = target: T1, human α-synuclein protofibril; assay: SPR, Biacore 8K; PF coated on chip, antibody injected, single cycle kinetics
From the text: as §1

[4] = target: T1, human α-synuclein protofibril; assay: inhibition ELISA; protofibril concentration as monomer equivalents

γ-synuclein monomer, sequence (O76070 whole entry): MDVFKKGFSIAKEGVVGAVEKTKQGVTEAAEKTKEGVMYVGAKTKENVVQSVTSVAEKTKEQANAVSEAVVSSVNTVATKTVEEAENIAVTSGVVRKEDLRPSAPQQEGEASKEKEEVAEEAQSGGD
β-synuclein monomer, sequence (Q16143 whole entry): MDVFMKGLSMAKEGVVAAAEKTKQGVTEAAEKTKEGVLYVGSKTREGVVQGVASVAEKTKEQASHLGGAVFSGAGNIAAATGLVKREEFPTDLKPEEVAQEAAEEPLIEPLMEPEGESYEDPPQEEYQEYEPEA

B1: BAN0805 (antibody, human IgG4 S228P, kappa, V domains shown)
VH: QVQLQESGPGLVKPSETLSLTCTVSGFSLTSYGVHWIRQPPGKGLEWIGVIWRGGSTDYSAAFMSRLTISKDTSKNQVSLKLSSVTAADTAVYYCAKLLRSVGGFADWGQGTMVTVSS
VL: DIVMTQSPLSLPVTPGEPASISCRSSQTIVHNNGNTYLEWYLQKPGQSPQLLIYKVSNRFSGVPDRFSGSGSGTDFTLKISRVEAEDVGVYYCFQGSHVPFTFGQGTKLEIKR
notes: Humanized variant of mAb47, human IgG4 (pXC-IgG4Pro(deltaK)) / kappa; also called hu47-IgG4
β-synuclein monomer
  binding result: no binding (tested: last point just above the 10000 nM tick)
α-synuclein monomer
  Kd: 2190 nM
[1]
  selectivity for α-synuclein protofibril versus monomer (IC50 monomer / IC50 PF): 910 fold
Aβ-protofibril
  binding result: no binding
γ-synuclein monomer
  binding result: no binding (tested: last point just above the 10000 nM tick)
[2]
  selectivity PF vs. monomeric α-synuclein (fold): 110000 fold
[3]
  Kd: 0.0185 nM
[4]
  IC50: 2.2 nM
